System: Escherichia coli TOP10
Experiment: shrunken log2 fold change of peptide-encoding DNA abundance (4.5 h post-induction vs induction); higher = less antimicrobial activity (less host growth inhibition)
Conditions: time post-induction: 4.5 h; library: site-saturation at positions 5, 18, 19, 20
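Further: peptides expressed intracellularly from a pBAD plasmid library in pooled LB shake-flask culture, induced with 0.3% L-arabinose, DNA abundance read by NGS, three biological replicates, DESeq2 with apeglm shrinkage.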

Row | Sequence | shrunken log2 fold change
1 | RRIRDRPPRLPRPRPRPVNLPRP | 0.0119
2 | RRIRNRPPRLPRPRPRPFFVPRP | 0.126
3 | RRIRWRPPRLPRPRPRPMCCPRP | 0.181
4 | RRIRQRPPRLPRPRPRPGFKPRP | -0.534
5 | RRIRWRPPRLPRPRPRPWPDPRP | 0.0849
6 | RRIRNRPPRLPRPRPRPMHFPRP | -0.145
7 | RRIRTRPPRLPRPRPRPSCFPRP | -0.0671
8 | RRIRLRPPRLPRPRPRPQNYPRP | -0.626
9 | RRIRVRPPRLPRPRPRPKTFPRP | -0.0753
10 | RRIRFRPPRLPRPRPRPKIPPRP | -0.428
11 | RRIRLRPPRLPRPRPRPWQIPRP | 0.019
12 | RRIRRRPPRLPRPRPRPIDEPRP | -0.106
13 | RRIRGRPPRLPRPRPRPCSTPRP | 1.14
14 | RRIRMRPPRLPRPRPRPKITPRP | 0.19
15 | RRIRYRPPRLPRPRPRPNMYPRP | -0.411
16 | RRIRQRPPRLPRPRPRPGSFPRP | -0.0531
17 | RRIRTRPPRLPRPRPRPPWWPRP | 0.928
18 | RRIRSRPPRLPRPRPRPDHNPRP | -0.308
19 | RRIRCRPPRLPRPRPRPKDRPRP | -0.0193
20 | RRIRARPPRLPRPRPRPMRIPRP | 0.155
21 | RRIRERPPRLPRPRPRPVSDPRP | -0.26
22 | RRIRKRPPRLPRPRPRPYEIPRP | -0.0117
23 | RRIRTRPPRLPRPRPRPGPAPRP | 0.35
24 | RRIRTRPPRLPRPRPRPKSWPRP | 0.245
25 | RRIRVRPPRLPRPRPRPMQTPRP | 0.00859

Row | Sequence | shrunken log2 fold change
26 | RRIRFRPPRLPRPRPRPAYDPRP | -0.293
27 | RRIRHRPPRLPRPRPRPDFRPRP | -0.0827
28 | RRIRARPPRLPRPRPRPNLSPRP | -0.0536
29 | RRIRNRPPRLPRPRPRPEQHPRP | 0.0592
30 | RRIRPRPPRLPRPRPRPWLTPRP | -0.123
31 | RRIRLRPPRLPRPRPRPLPHPRP | -0.309
32 | RRIRVRPPRLPRPRPRPLGLPRP | 0.122
33 | RRIRFRPPRLPRPRPRPQCNPRP | -0.531
34 | RRIRTRPPRLPRPRPRPTTYPRP | -0.441
35 | RRIRYRPPRLPRPRPRPARDPRP | 0.197
36 | RRIRSRPPRLPRPRPRPCYLPRP | -0.586
37 | RRIRMRPPRLPRPRPRPMRLPRP | 0.416
38 | RRIRERPPRLPRPRPRPIEGPRP | 0.0039
39 | RRIRCRPPRLPRPRPRPPNYPRP | -0.376
40 | RRIRWRPPRLPRPRPRPCARPRP | 0.0277
41 | RRIRERPPRLPRPRPRPETSPRP | 0.122
42 | RRIRWRPPRLPRPRPRPHYCPRP | -0.269
43 | RRIRARPPRLPRPRPRPTSAPRP | 0.684
44 | RRIRERPPRLPRPRPRPECHPRP | 0.0213
45 | RRIRMRPPRLPRPRPRPAYRPRP | 0.196
46 | RRIRERPPRLPRPRPRPGIYPRP | -0.91
47 | RRIRSRPPRLPRPRPRPAGDPRP | 0.116
48 | RRIRIRPPRLPRPRPRPHQAPRP | -0.0342
49 | RRIRQRPPRLPRPRPRPMCDPRP | 0.00628
50 | RRIRFRPPRLPRPRPRPHDLPRP | -0.203

Row | Sequence | shrunken log2 fold change
51 | RRIRLRPPRLPRPRPRPPINPRP | -0.00991
52 | RRIRDRPPRLPRPRPRPYRIPRP | 0.0295
53 | RRIRQRPPRLPRPRPRPVLDPRP | 0.0663
54 | RRIRLRPPRLPRPRPRPTVDPRP | -0.131
55 | RRIRDRPPRLPRPRPRPQQEPRP | 0.00606
56 | RRIRVRPPRLPRPRPRPRNMPRP | -0.318
57 | RRIRWRPPRLPRPRPRPNGKPRP | 0.123
58 | RRIRFRPPRLPRPRPRPMHVPRP | -0.0102
59 | RRIRPRPPRLPRPRPRPERIPRP | 0.152
60 | RRIRMRPPRLPRPRPRPAPNPRP | 1.07
61 | RRIRPRPPRLPRPRPRPWGEPRP | 0.113
62 | RRIRPRPPRLPRPRPRPSNKPRP | -0.56
63 | RRIRGRPPRLPRPRPRPLSDPRP | 0.365
64 | RRIRQRPPRLPRPRPRPYMSPRP | -0.655
65 | RRIRMRPPRLPRPRPRPDIIPRP | 1.42
66 | RRIRGRPPRLPRPRPRPIEHPRP | 0.125
67 | RRIRTRPPRLPRPRPRPFWMPRP | -0.111
68 | RRIRRRPPRLPRPRPRPQFRPRP | -0.165
69 | RRIRWRPPRLPRPRPRPLQSPRP | 0.153
70 | RRIRSRPPRLPRPRPRPDWDPRP | 0.157
71 | RRIRARPPRLPRPRPRPQFNPRP | -0.0606
72 | RRIRRRPPRLPRPRPRPACLPRP | 0.623
73 | RRIRPRPPRLPRPRPRPGKDPRP | 0.0142
74 | RRIRKRPPRLPRPRPRPLHPPRP | 0.158
75 | RRIRARPPRLPRPRPRPRKGPRP | 0.365

Row | Sequence | shrunken log2 fold change
76 | RRIRCRPPRLPRPRPRPKIIPRP | -0.932
77 | RRIRCRPPRLPRPRPRPTGIPRP | 0.287
78 | RRIRYRPPRLPRPRPRPIAIPRP | -0.217
79 | RRIRFRPPRLPRPRPRPWFEPRP | -0.0653
80 | RRIRRRPPRLPRPRPRPSAHPRP | -0.0606
81 | RRIRCRPPRLPRPRPRPPAVPRP | 0.645
82 | RRIRYRPPRLPRPRPRPQANPRP | -0.694
83 | RRIRFRPPRLPRPRPRPYHWPRP | -0.208
84 | RRIRWRPPRLPRPRPRPCWYPRP | -0.277
85 | RRIRCRPPRLPRPRPRPCFRPRP | -0.33
86 | RRIRPRPPRLPRPRPRPHKKPRP | 0.165
87 | RRIRKRPPRLPRPRPRPVTCPRP | -0.0146
88 | RRIRWRPPRLPRPRPRPLFNPRP | -0.711
89 | RRIRIRPPRLPRPRPRPPINPRP | -0.305
90 | RRIRSRPPRLPRPRPRPQATPRP | -0.107
91 | RRIRVRPPRLPRPRPRPTIQPRP | -0.526
92 | RRIRTRPPRLPRPRPRPFLCPRP | -0.978
93 | RRIRARPPRLPRPRPRPSCDPRP | 0.323
94 | RRIRLRPPRLPRPRPRPRYMPRP | -0.982
95 | RRIRCRPPRLPRPRPRPHGGPRP | -0.154
96 | RRIRMRPPRLPRPRPRPHPAPRP | 0.903
97 | RRIRFRPPRLPRPRPRPNSGPRP | -0.166
98 | RRIRMRPPRLPRPRPRPHHPPRP | -0.234
99 | RRIRIRPPRLPRPRPRPGSTPRP | -0.549
100 | RRIRRRPPRLPRPRPRPYFSPRP | -0.122

Row | Sequence | shrunken log2 fold change
101 | RRIRNRPPRLPRPRPRPMYCPRP | -0.268
102 | RRIRARPPRLPRPRPRPCSWPRP | 0.0664
103 | RRIRIRPPRLPRPRPRPPPTPRP | 0.834
104 | RRIRARPPRLPRPRPRPDREPRP | -0.0167
105 | RRIRQRPPRLPRPRPRPAMTPRP | 0.00659
106 | RRIRPRPPRLPRPRPRPNVQPRP | 0.0803
107 | RRIRLRPPRLPRPRPRPEEIPRP | -0.012
108 | RRIRQRPPRLPRPRPRPVTWPRP | -0.073
109 | RRIRDRPPRLPRPRPRPIAPPRP | 0.0634
110 | RRIRYRPPRLPRPRPRPHIKPRP | -0.887
111 | RRIRFRPPRLPRPRPRPFSSPRP | -0.468
112 | RRIRARPPRLPRPRPRPSPTPRP | 0.328
113 | RRIRIRPPRLPRPRPRPWVGPRP | -0.248
114 | RRIRCRPPRLPRPRPRPMEQPRP | -0.00403
115 | RRIRHRPPRLPRPRPRPTWAPRP | 0.303
116 | RRIRVRPPRLPRPRPRPQLHPRP | -0.147
117 | RRIRYRPPRLPRPRPRPRCGPRP | -0.0223
118 | RRIRRRPPRLPRPRPRPFPWPRP | -0.0263
119 | RRIRCRPPRLPRPRPRPCLCPRP | -0.185
120 | RRIRIRPPRLPRPRPRPDKFPRP | -0.565
121 | RRIRERPPRLPRPRPRPAGLPRP | -0.0519
122 | RRIRVRPPRLPRPRPRPNHPPRP | -0.0266
123 | RRIRNRPPRLPRPRPRPIEVPRP | 0.0112
124 | RRIRVRPPRLPRPRPRPYKDPRP | -0.933
125 | RRIRHRPPRLPRPRPRPLETPRP | -0.47

Row | Sequence | shrunken log2 fold change
126 | RRIRPRPPRLPRPRPRPDRRPRP | 0.192
127 | RRIRKRPPRLPRPRPRPKQVPRP | -0.176
128 | RRIRQRPPRLPRPRPRPCNHPRP | 0.037
129 | RRIRPRPPRLPRPRPRPYDPPRP | -0.301
130 | RRIRIRPPRLPRPRPRPCTGPRP | -0.887
131 | RRIRNRPPRLPRPRPRPIYKPRP | -0.414
132 | RRIRSRPPRLPRPRPRPEPVPRP | 1.44
133 | RRIRIRPPRLPRPRPRPWNHPRP | 0.0112
134 | RRIRVRPPRLPRPRPRPAKIPRP | 0.117
135 | RRIRARPPRLPRPRPRPDMFPRP | 0.0745
136 | RRIRTRPPRLPRPRPRPPDQPRP | 0.601
137 | RRIRNRPPRLPRPRPRPHIYPRP | -0.0215
138 | RRIRSRPPRLPRPRPRPKQWPRP | 0.474
139 | RRIRFRPPRLPRPRPRPFHIPRP | -0.663
140 | RRIRHRPPRLPRPRPRPEYAPRP | 0.0953
141 | RRIRHRPPRLPRPRPRPAPEPRP | 0.0106
142 | RRIRRRPPRLPRPRPRPRFCPRP | 0.421
143 | RRIRKRPPRLPRPRPRPVWDPRP | 2.04
144 | RRIRNRPPRLPRPRPRPCWAPRP | -0.057
145 | RRIRRRPPRLPRPRPRPGHGPRP | 1.04
146 | RRIRARPPRLPRPRPRPWYCPRP | -0.306
147 | RRIRIRPPRLPRPRPRPAYCPRP | -0.23
148 | RRIRWRPPRLPRPRPRPYYAPRP | -0.195
149 | RRIRYRPPRLPRPRPRPQQQPRP | 0.00548
150 | RRIRPRPPRLPRPRPRPIHRPRP | -0.0135
